For data set [1], the system named is NLRC4 inflammasome. Description: Flagellin-induced caspase-1 activation in wild type BMDM pre-treated with NRTIs, immunoblot. The format is cell-based, mouse. As to conditions: pre-treated 1 hour, flagellin 3 μg/ml (FIG. 31). The method, then: FIG. 27. NRTI block Flagellin induced NLRC4 inflammasome in BMDM. Wild type BMDM cells were pre-treated with exemplary NRTIs (D4T, 3TC) at 100 μM for 1 hour, and then stimulated with flagellin transfection (3 μg/ml). Supernatant and cell lysate were collected for Caspase-1 detection. […] The caspase-1 (p20) bands are indicated with black arrow.
FIG. 28. NRTI (3TC) blocks flagellin-induced NLRC4 inflammasome in a dose dependent manner. Wild type BMDM cell were pre-treated with indicated dose of NRTI (3TC) for 1 hour, and then stimulated with Flagellin transfection (3 μg/ml). Supernatants were collected for Caspase-1 detection. […] The caspase-1 (p20) bands are indicated with black arrow.
FIG. 31. Modified NRTIs (K8, K9) block flagellin-induced NLRC4 inflammasome in BMDM. Wild type BMDM cell were pre-treated with regular NRTI (D4T, 3TC), the modified NRTIs 3-Methyl-3TC (K9) or 2-Ethyl-AZT (K8), or NLRP3 inhibitors (MCC950, CY-09) for 1 hour, and then stimulated with flagellin transfection (3 μg/ml). Supernatants were collected for secreted caspase-1 detection. […] The caspase-1 (p20) bands are indicated with black arrow.
Nucleoside reverse transcriptase inhibitors (NRTIs) are HIV therapeutics that inhibit retrovirus replication. We have previously shown that NRTIs inhibit P2X7-mediated NLRP3 inflammasome activation by an endogenous retroelement Alu RNA (SEQ ID NO: 86). Activation of NLRP3 inflammasome by Alu RNA (SEQ ID NO: 86) causes the death of retinal pigment epithelium (RPE) in geographic atrophy, a severe form of AMD. […] Currently, multiple NLRP3 inflammasome inhibitors such as MCC950, CY09 are available however, there are no inhibitors of NLRC4. So, a need exists to develop inhibitors of NLRC4 inflammasome to study NLRC4 driven diseases. Here, we show for the first time that NRTIs block flagellin induced NLRC4 inflammasome. We pretreated flagellin transfected BMDMs with DT4 and 3TC to examine caspase-1 activation.
NLRC4 oligomerization is another hallmark of inflammasome activation where high-molecular mass NLRC4 protein complexes are assembled. […]
(Immunoblotting shows a protein as a band on a membrane.)

Data set [2] has as its system caspase-1. Description: Alu RNA induced caspase-1 activation in THP1 cells after siRNA knockdown. In kind it is cell-based, human. As to conditions: siRNA knockdown (FIGS. 11A, 11B). The source says: FIGS. 11A and 11B. Ddx17 involved in Alu RNA (SEQ ID NO: 86) induced inflammasome independent of its microprocessor function. DDX17 is a component of microprocessor complexes with DDX5 and Drosha. To test whether the microprocessor function of DDX17 is required for Alu RNA (SEQ ID NO: 86) induced inflammasome, we measured caspase-1 activation in THP cells with DDX5 or Drosha knockdown (siRNA for DDX5: GGAAAUUACAGUUAGAGGU; SEQ ID NO: 89); siRNA for Drosha: GACAAGUUGAUAGGAUAUA; SEQ ID NO: 90). FIG. 11A. siRNA mediated Ddx17 knockdown, but not Ddx5 in THP1 cells, blocked Alu RNA (SEQ ID NO: 86) induced caspase-1 activation. […] The caspase-1 (p20) bands were indicated with black arrows.
We next examined whether DDX5 or DDX17 was the sensor for Alu RNA (SEQ ID NO: 86) induced NLRC4 inflammasome activation. Due to the high degree of similarity in the sequences of DDX5 and DDX17, we designed 3 siRNAs targeting DDX5 alone, DDX17 alone, or both DDX5 and DDX17, and confirmed their target efficiency in THP1 cells (FIG. 11A). […] Therefore, we tested whether Drosha is also involved in SINE RNA-DDX17-NLRC4 axis. […] These observations implicate that DDX17 mediated SINE RNA induced NLRC4 inflammasome is independent of microprocessor function.

The target of data set [3] is Ddx17 (bait of the Ddx complex, Table 3) (UniProt Q92841). Description: IP tandem mass spectrometry of the Ddx17 complex, mock-treated.
Chain of Ddx17 (bait of the Ddx complex, Table 3) (Q92841 whole entry, one chain of several): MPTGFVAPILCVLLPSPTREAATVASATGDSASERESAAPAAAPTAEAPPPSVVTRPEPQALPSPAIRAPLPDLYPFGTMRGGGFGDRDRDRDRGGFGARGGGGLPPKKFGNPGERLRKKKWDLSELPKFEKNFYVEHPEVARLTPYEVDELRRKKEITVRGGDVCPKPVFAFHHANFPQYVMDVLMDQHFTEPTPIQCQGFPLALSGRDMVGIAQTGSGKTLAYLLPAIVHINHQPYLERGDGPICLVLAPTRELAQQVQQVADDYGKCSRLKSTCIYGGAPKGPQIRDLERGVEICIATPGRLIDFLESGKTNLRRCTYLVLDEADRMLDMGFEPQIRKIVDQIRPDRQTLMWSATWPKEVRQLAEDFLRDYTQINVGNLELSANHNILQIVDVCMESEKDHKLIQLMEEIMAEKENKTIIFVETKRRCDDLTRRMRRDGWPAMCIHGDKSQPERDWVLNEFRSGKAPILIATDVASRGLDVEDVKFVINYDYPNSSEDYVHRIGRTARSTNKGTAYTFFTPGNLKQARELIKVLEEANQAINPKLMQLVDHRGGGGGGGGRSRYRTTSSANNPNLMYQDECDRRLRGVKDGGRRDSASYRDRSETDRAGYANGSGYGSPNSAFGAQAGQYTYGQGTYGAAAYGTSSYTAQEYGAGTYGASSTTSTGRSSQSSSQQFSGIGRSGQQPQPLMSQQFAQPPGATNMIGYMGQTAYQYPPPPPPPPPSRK
The target is the same in data set [4]. The data set is described as follows: IP tandem mass spectrometry of the Ddx17 complex, Alu RNA-treated.
The test system of data set [5] is NLRC4 phosphorylation (site S533). Description: SINE RNA induced NLRC4 phosphorylation (S533) in BMDM, Western blot. In kind it is cell-based, mouse. As to conditions: SINE RNAs each at 100 pmol, polyI:C 10 μg/ml (FIG. 1). The method, then: FIG. 1. SINE RNA induced NLRC4 phosphorylation (site S533) in mice macrophage (BMDM). Mouse bone marrow derived macrophage (BMDM) were treated with SINE RNAs (Alu (SEQ ID NO: 86), B1 (SEQ ID NO: 87), and B2 (SEQ ID NO: 88), each at 100 pmol), and polyI:C (10 μg/ml). Phosphorylated Nlrc4 (p-Nlrc4) and total Nlrc4 (t-Nlrc4) were detected by Western blot. Actin is provided as a loading control. The p-NLRC4 bands were indicated by black arrow.
Previous studies have shown that NLRC4 inflammasome activation in response to Salmonella exposure requires two steps for its activation, phosphorylation on Ser533 residue of NLRC4 and NAIP mediated oligomerization of NLRC4. […] Moreover, treatment with SINE RNAs induced caspase-1 p20 cleavage, indicative of inflammasome activation (FIG. 2). For the subsequent experiments in this study, we used Alu RNA (SEQ ID NO: 86) as the stimulus to activate the NLRC4 inflammasome. To date, two kinases are reported to phosphorylate NLRC4 at S533: protein kinase C delta (PKCδ) and leucine rich repeat-containing kinase-2 (LRRK2). To explore the roles of these kinases in Alu RNA (SEQ ID NO: 86) induced NLRC4 phosphorylation, we pretreated BMDMs with pharmacological inhibitors of LRRK2 (GSK2578215A, GSK) and PKCδ (Rottlerin, Rot) respectively.

Data set [6] relates to ASC specks. The data set is described as follows: SINE RNA induced ASC specks in BMDM, immunofluorescence. In kind it is cell-based, mouse. As to conditions: BMDMs, transfection vs Mock (FIG. 3A). The protocol:
FIGS. 3A and 3B. SINE RNA-induced ASC oligomerization is dependent on NLRC4 (BMDM). FIG. 3A. Immunofluorescence images of endogenous ASC specks and NLRC4 puncta in BMDMs after transfected with Alu (SEQ ID NO: 86) or B2 (SEQ ID NO: 88) RNA or transfection reagents only (Mock). […] Moreover, NLRC4 proteins assembled as puncta, and co-resided with ASC specks. FIG. 3B. ASC oligomerizations were evaluated in wild-type and Nlrc4^−/− BMDMs through cross-linking and western blot. […] The bands of oligomeric ASC protein were indicated by black arrow.
The activated NLRC4 inflammasome undergoes oligomerization by assembling into high-molecular mass multiprotein complexes. We first investigated in situ assembling of NLRC4 and apoptosis speck (ASC) like protein complexes in response to SINE RNA treatment of BMDMs. Immunofluorescence studies show increased NLRC4 and ASC specks in SINE RNA-treated BMDMs compared to mock-treated cells (FIG. 3A). To assess NLRC4 inflammasome assembly, WT and NLRC4 KO BMDM cells were treated with Alu RNA (SEQ ID NO: 86). Disuccinimidyl suberate (DSS) cross-linked lysates were resolved using denaturing SDS-PAGE to detect ASC oligomers and cell lysates were resolved using native polyacrylamide gel electrophoresis (NATIVE-PAGE) to detect NLRC4 oligomerization. […] NLRC4/ASC oligomerization is essential for the cleavage of pro-caspase-1 into its active form p20 and IL-1β release.

“Also recorded” adds a separate entry of the source.

2-Ethyl-AZT [K8]: in data set [1], the “flagellin induced caspase-1 activation, modified NRTIs” value is “blocked; also recorded: inhibited”.
As to 3-Methyl-3TC [K9], the “flagellin induced caspase-1 activation, modified NRTIs” value in data set [1] is “blocked; also recorded: inhibited”.
Regarding “DDX5 siRNA: siRNA for DDX5: GGAAAUUACAGUUAGAGGU; SEQ ID NO: 89 (chemistry not fully specified)”, in data set [2], the “caspase-1 cleavage in Alu RNA treated THP1 cells” value is on record as “did not do so”.
In data set [3], “Ddx5 (Table 3) (from UniProt P17844 1-614)” registered a Peptides of 10 peptides.
Consider “Ddx5 (Table 3) (from UniProt P17844 1-614) (enzyme)”, for which the Coverage (%) in data set [3] came to 17%. In data set [4], this molecule showed a Coverage (%) of 25% and a Peptides of 15 peptides.
In data set [3], “Nlrp1 (Table 3) (from UniProt Q9C000 1-1473) (receptor)” yielded a Coverage (%) of 0% and a Peptides of 0 peptides. In data set [4], this molecule registered a Coverage (%) of 6.6% and a Peptides of 2 peptides.
The corresponding values for “Nlrp3 (Table 3) (from UniProt Q96P20 1-1036) (receptor)” are 0%, 0 peptides, 3.7% and 3 peptides.
On to “Nlrp8 (Table 3) (from UniProt Q86W28 1-1048) (receptor)”, for which, in data set [3], the Coverage (%) is 0% and the Peptides came to 0 peptides. In data set [4], the Coverage (%) is 2.9% and the Peptides amounted to 2 peptides.
For the molecule poly(I:C), in data set [5], the “NLRC4 phosphorylation on S533 in BMDMs” value is given as “did not induce”.
For “siDrosha: siRNA for Drosha: GACAAGUUGAUAGGAUAUA; SEQ ID NO: 90 (listed as RNA, chemistry not given here)”, the “caspase-1 cleavage in Alu RNA treated THP1 cells” value in data set [2] is “did not”.

B1: B2: mouse SINE B2 RNA, SEQ ID NO: 88 (nucleic acid)
chain: GGGCUGGAGAGAUGGCUCAGUGGUUAAGAGCACCUGACUGCUCUUCCAGAGGUCCUGAGUUCAAUUCCCAGCAACCACAUGGUGGCUCACAACCAUCUGUAAUGAGAUCUGAUGCCCUCUUCUGGUGUGUCUGAAGACAGCUACAGUGUACUUACAUAUAAUAAAUAAAUAAAUAAAUAAAUCUUAAAAAAAAAAAAAAGAAAGAAAAA
modifications: Artificially synthesized B2 RNA
With B1, in data set [5], the “NLRC4 phosphorylation on S533 in BMDMs” value is “induced”. In addition, the “formation of ASC specks” value in data set [6] was “induced the formation of ASC specks”.

Source of the values: patent publication US20220280543A1, “DDX17 AND NLRC4 TARGETING FOR INFLAMMATORY DISEASES” (University of Virginia Patent Foundation, priority 2019, published 2022).
